In paper PMC2362355, “The two phyto-oestrogens genistein and quercetin exert different effects on oestrogen receptor function”:

Biological target: oestrogen receptor (ER), recombinant human (human, UniProt P03372 1-595)
Experiment: EMSA; 10 nM oestradiol; supershifted by anti-ER HC-20; 20 mM HEPES pH 7.9, 60 mM KCl, 5 mM MgCl2, 2 mM DTT, 10% glycerol, 100 ug (unit prefix not given) BSA, 380 fmol ER, 6 ng ERE, 20 ul; 20 C 20 min then 37 C 15 min; 4% native PAGE in 90 mM Tris-borate, 2.5 mM EDTA pH 8.3
Settings: protein: commercial; label: 32P end label (T4 PNK); (only one strand printed, described as complementary strands, 27 bp)

oestrogen receptor (ER), recombinant human, sequence (P03372 whole entry): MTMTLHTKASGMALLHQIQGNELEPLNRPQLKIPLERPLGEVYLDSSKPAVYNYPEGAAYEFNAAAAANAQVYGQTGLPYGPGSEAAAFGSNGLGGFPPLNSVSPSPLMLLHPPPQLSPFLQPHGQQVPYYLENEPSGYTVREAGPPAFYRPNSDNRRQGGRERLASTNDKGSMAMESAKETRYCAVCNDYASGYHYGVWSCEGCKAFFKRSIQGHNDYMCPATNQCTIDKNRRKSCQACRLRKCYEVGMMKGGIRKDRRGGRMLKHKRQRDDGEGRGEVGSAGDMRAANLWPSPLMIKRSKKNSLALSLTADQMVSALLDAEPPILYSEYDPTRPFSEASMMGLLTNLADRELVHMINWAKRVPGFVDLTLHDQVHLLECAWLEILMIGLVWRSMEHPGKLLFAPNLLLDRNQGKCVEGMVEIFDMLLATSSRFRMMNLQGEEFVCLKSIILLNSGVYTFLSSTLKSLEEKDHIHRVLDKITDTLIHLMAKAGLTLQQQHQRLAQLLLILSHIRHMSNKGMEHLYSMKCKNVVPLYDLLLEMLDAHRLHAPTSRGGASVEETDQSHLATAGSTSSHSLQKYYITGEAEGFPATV

B1: consensus ERE 27 bp (dsDNA)
DNA 1: GATCCAGGTCACAGTGACCTGGGCCCG
DNA 2: CGGGCCCAGGTCACTGTGACCTGGATC
binding result: binds
